B2: His-SUMO-UPB1 (natural protein, Arabidopsis, UniProt O22901 1-102, looked up)
chain: MGVTLEGQRKESIWVLMRRQRARRALVKKIMIRPRKSVEASRRPCRAIHRRVKTLKELVPNTKTSEGLDGLFRQTADYILALEMKVKVMQTMVQVLTETNCV
notes: UPB1, Arabidopsis, At2g47270; The phosphorylation methods speak of a 6x His tag; source: E. coli, purified

Columns and labels:
[1] = molecular target: PRE3 (UniProt Q9CA64); assay: anti-HA co-IP, anti-GFP blot; settings: reference: wild type UPB1; sites S37,S41
[2] = molecular target: PRE2 (UniProt Q9LXG5); assay: anti-HA co-IP, anti-GFP blot; settings: reference: wild type UPB1; sites S37,S41
[3] = molecular target: B2; assay: pull-down; His pull-down: about 30 ug His-SUMO-UPB1 with 30 ug MBP-BIN2, GST-PRE2 or GST-PRE3 in 400 ul 20 mM Tris-HCl pH 8.0, 150 mM NaCl, 0.2% Triton; about 3 h at 4 C; blots with anti-His, anti-MBP, anti-GST; settings: both partners purified
[4] = molecular target: T1, MBP-BIN2 (Arabidopsis, UniProt Q39011 1-380); assay: as above; settings: both partners purified
T1 construct: BIN2, Arabidopsis, At4g18710; source: E. coli, purified
T1 sequence (looked up): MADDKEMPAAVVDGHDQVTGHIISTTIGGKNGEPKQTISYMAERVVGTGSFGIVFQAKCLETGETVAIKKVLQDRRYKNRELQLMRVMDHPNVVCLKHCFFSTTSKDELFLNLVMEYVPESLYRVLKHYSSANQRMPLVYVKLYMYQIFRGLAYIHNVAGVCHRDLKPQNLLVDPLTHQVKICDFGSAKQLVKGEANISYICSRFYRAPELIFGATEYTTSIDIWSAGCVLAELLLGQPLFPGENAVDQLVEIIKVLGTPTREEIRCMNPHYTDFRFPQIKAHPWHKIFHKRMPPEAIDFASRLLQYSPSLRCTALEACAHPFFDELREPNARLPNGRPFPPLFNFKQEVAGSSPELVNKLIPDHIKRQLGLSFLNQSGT

UPB1 (UPBEAT1) (from UniProt O22901) UPB1 S37A S41A
binding against the reference [1]: stronger | binding against the reference [2]: stronger

B1: GST-PRE3 (natural protein, Arabidopsis, UniProt Q9CA64 1-93, looked up)
chain: MSGRRSRSRQSSGTSRISEDQINDLIIKLQQLLPELRDSRRSDKVSAARVLQDTCNYIRNLHREVDDLSERLSELLANSDTAQAALIRSLLTQ
notes: PRE3, Arabidopsis, At1g74500; source: E. coli, purified
binding result [3]: binds

B2
binding result [4]: binds

B3: GST-PRE2 (natural protein, Arabidopsis, UniProt Q9LXG5 1-94, looked up)
chain: MSSSRRSRQASSSSRISDDQITDLISKLRQSIPEIRQNRRSNTVSASKVLQETCNYIRNLNKEADDLSDRLTQLLESIDPNSPQAAVIRSLING
notes: PRE2, Arabidopsis, At5g15160; source: E. coli, purified
binding result [3]: binds

From publication PMC7360063, “Brassinosteroids regulate root meristem development by mediating BIN2-UPB1 module in Arabidopsis” (PLoS Genetics, 2020)
